Data from the supplement of paper PMC12042874.
± gives the uncertainty stated by the source.

assay: amyloid nucleation score (Sup35N fusion, yeast selection) (log enrichment); library NNK2; higher = more nucleation; inactive = no reads after selection
Procedure, shortened: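 DiMSum was used to calculate nucleation scores as log enrichment of output over input reads, centred on the mode score of non-aggregating sequences. Sequences with fewer than 100 input reads were not scored. Input and output came from Illumina sequencing of plasmid inserts in psi-negative yeast expressing peptides of 20 random codons fused to Sup35N, induced 24 hours with 100 μM copper sulfate and then grown 7 days at 30°C on medium lacking adenine and uracil.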

Row | Substance | amyloid nucleation score
1 | VFTSFVG | 0.536 ± 0.46
2 | FFMLYYGYLLSVRDSCSLCI | -0.017 ± 0.76
3 | IGCGARLEGKMMACMSRDRQ | 0.461 ± 0.64
4 | LNSTGAQQFRTVEVYTSMQW | 2.81 ± 0.11
5 | KWSYSPVGKHYLYMMWDGHS | 0.409 ± 0.3
6 | RGKYAITCVMLWK | 5.769 ± 0.054
7 | TGVFHSVCNIWCFHSKDPSN | 7.54 ± 0.076
8 | GPLRNEASGIWKKPGQCMTD | -0.813 ± 0.76
9 | FVCTDCLF | -1.35 ± 0.48
10 | CKFLRVIA | -1.42 ± 0.41
11 | NWGFISVLVALPWVWGLRPG | -0.387 ± 0.42
12 | LYDIWEDGSITLFCYSYQHH | 8.969 ± 0.037
13 | FGYYQLYNDQGGYYPMSSAS | inactive
14 | VATLRSRHFDEHSHVVFSSS | 0.236 ± 0.29
15 | FAFAINRFCDSRRPVLCYWD | -1.21 ± 1.1
16 | GWVMVVPFPCMIVVVSAVGS | -0.152 ± 0.4
17 | VGRRSSKYESAELRVGSEVV | 1.71 ± 0.12
18 | TNLCVPFVYEHFGCYGYN | 3.83 ± 0.12
19 | GSYGQVHSWYVCDFPGWVLR | 0.438 ± 0.57
20 | HMNFRWLYMSIYVISLLEAL | inactive
21 | CSSFKSLIRLGTLNRRNRNE | 3.68 ± 0.059
22 | LSPRSGNRTP | -0.436 ± 0.41
23 | SCSIPELNNEGIKVCFMNTE | 1.27 ± 0.13
24 | FIPYKYAVHSS | 0.166 ± 0.62
25 | GWVNRIYTRQLECSSLEYFF | 3.17 ± 0.11

Row | Substance | amyloid nucleation score
26 | GRRMIRAERTIRLIIHVRSL | 0.767 ± 0.6
27 | TDKCVTTFNCYNLHRR | 1.62 ± 0.15
28 | FCCSKLAPRTGYYSF | 7.12 ± 0.066
29 | LAGRC | 0.968 ± 0.56
30 | YGTKQVGKNRFFEHSYYYWP | inactive
31 | YFNNPLFVEDFWLSYVSMSY | -0.749 ± 0.32
32 | LVAFLGQIEPSRTQRTLGSG | 0.001 ± 0.39
33 | YTCRYRFTLNQTSSRRFSFW | 1.35 ± 0.13
34 | HIEVSACTRFLILNIHLRII | -1.46 ± 0.53
35 | ILWWNKAMGCFNELVLGRRV | -0.016 ± 0.79
36 | WMYTSRPNSSQTIRGWRATY | -0.046 ± 0.39
37 | SHNDISSRC | -0.795 ± 0.49
38 | RVTSIVYLKLICFMGVSNLF | inactive
39 | HKVQLVWPFVYLVEVQRRSG | 2.85 ± 0.089
40 | IIPFRRSTVRLVRCLWISGL | 1.13 ± 0.31
41 | TNFYWY | 3.23 ± 0.065
42 | FEACVTGMLSDRF | -0.871 ± 0.41
43 | GSWLLGMMVLQRILMNG | 1.41 ± 0.44
44 | VLDFQTSYMLPEFVRPGVGY | 0.216 ± 0.25
45 | GRDNYSWCSRVEPCKRNGAL | 0.103 ± 0.43
46 | NMFNPFRFRISNYEVCSNMC | 6.257 ± 0.043
47 | YYGALWRYAGMSG | -0.472 ± 0.3
48 | DPWRGGPVSSH | 1.18 ± 0.23
49 | CTVCITKGWLMHVWYYAYRW | 0.902 ± 0.22
50 | VTDRNIRLDPVALKHASVYG | -0.368 ± 0.38

Row | Substance | amyloid nucleation score
51 | LILTFLEWNLFFYSFNIFTY | 5.39 ± 0.078
52 | VYCVDIFCTESLVCPTQTWG | 6.055 ± 0.06
53 | NNEFYRRYVGNYSLVMVMGN | -0.088 ± 1.1
54 | GMRSCYWCEPSYCWASA | 2.9 ± 0.066
55 | RYTCRLFTDTYDSSVVLGAM | 1.17 ± 0.37
56 | QFGNVRLSS | 0.995 ± 0.53
57 | AALFDLRWTHHKYFPNVKSG | 0.057 ± 1.1
58 | IWFRIQVCEIPSLIQTIVRR | -0.064 ± 0.32
59 | CVSDCD | 3.45 ± 0.14
60 | RITDYRCLTMNKGQSARNQG | inactive
61 | YWEDNWAPNIQDLWQRRRCG | 0.743 ± 0.81
62 | FVYESIFLHRMSYNPIRWWV | 0.112 ± 1.1
63 | CFSSVIFAMIFVRNR | 1.73 ± 0.21
64 | AFDLLDD | 0.904 ± 0.33
65 | RFDRTRCETKSRLVRIR | 0.084 ± 0.41
66 | FLSSIGHLF | 3.89 ± 0.12
67 | WVTIALYCNKLIVTVRGGIG | -0.029 ± 1.1
68 | DGGREPIVFYSQNYVCNKFV | 6.775 ± 0.048
69 | ASLLSGFNFKSVRHGLRDLG | 0.568 ± 0.24
70 | NILLMYFSLK | 5.74 ± 0.049
71 | KSCDIL | -0.335 ± 0.79
72 | SGYMAHVLVFLSEGISVPC | inactive
73 | GVRHGHTRSVGYFSVSYTSL | -1.05 ± 0.54
74 | WLLVDGEH | 0.025 ± 0.45
75 | SHQLICFSWRLDFYHRGLLQ | 2.5 ± 0.13

Row | Substance | amyloid nucleation score
76 | MSFFYDMEEWRMCLRLARYR | 3.82 ± 0.07
77 | TFSQYTWEFIYN | 3.68 ± 0.11
78 | ARNSVKHSFFQVRRLHGSWD | 0.367 ± 0.38
79 | TFAQYPSLGNSFSGWGYCVK | -2.02 ± 0.75
80 | LGHTH | 1.06 ± 0.53
81 | VLMYIWDLVGGSLSFKKVLF | inactive
82 | YYVVLGSSM | -0.018 ± 0.42
83 | HRDKLKVSPQITRSSFRRLS | 0.423 ± 0.26
84 | YYVERCNGTMVRNFLGATLV | -0.968 ± 0.5
85 | QSMICTFFVLCLRSRYW | 4.46 ± 0.068
86 | FRVFCMHSED | 2.47 ± 0.12
87 | DKIVI | -0.978 ± 0.54
88 | FFMPKGTLRSIGSLFR | -1.65 ± 1.1
89 | SYIGMNQNCFSEQLNNAQTG | 0.606 ± 0.18
90 | MYFNSRSNYEYAYCWLFIVF | 0.492 ± 0.44
91 | NGRTRCNPFLFGFKGRPGEC | -1.34 ± 1.1
92 | SVFSYMYRLNSALLYFFYQS | inactive
93 | RLFTWIFPTGNTGF | 8.831 ± 0.074
94 | DNMGMRSGSSDLHREVWSHC | 0.172 ± 0.35
95 | FVWGREMGCWCQEWYRCMRN | -0.015 ± 0.24
96 | GVRLDFYGNHFLWPAVSRGR | 3.63 ± 0.099
97 | LVVKGDLFAIYVCPCLCRGS | 9.397 ± 0.051
98 | GPFLMSVTLVYLFVFMFERL | -0.769 ± 0.36
99 | SINLLLGAGVVGGGLVLYGS | 2.45 ± 0.14
100 | LFIYYWYLLFYGSPYIWLPV | -0.363 ± 1.1

Row | Substance | amyloid nucleation score
101 | PFQSNNSEVDGSYYMSVRC | -0.705 ± 0.39
102 | VVVPDGFRNYEYGNSTLFVI | -0.99 ± 1.1
103 | NRMFLLVLFVEL | 0.572 ± 0.27
104 | TDSYPVLDLHPGSYRVH | 0.397 ± 0.39
105 | SNCFHLVW | -0.031 ± 1
106 | AIMYFVTCMKILMFVGNYVQ | -0.118 ± 0.27
107 | SAPRNNVATLTEHLERLVLR | -0.767 ± 0.76
108 | SPKTDDTTVMGELYVWLTLG | 8.338 ± 0.036
109 | AYKSYGKASSDWMWGLCSHH | -0.108 ± 0.56
110 | FNYSPLRFCTNDC | 1.63 ± 0.31
111 | TSGQNESDA | 0.578 ± 0.81
112 | VILYNGFDLSGSD | 0.286 ± 0.44
113 | GPDLESFLRVIMQNFHDTKK | -1.54 ± 0.41
114 | YWTPISFVY | -1.09 ± 0.64
115 | MNMFMCFNGHNKRIVVKSKL | 0.446 ± 0.42
116 | CNVLSRRNGKLRACFS | 0.732 ± 0.4
117 | VDRFFLEARCLELTSQ | 0.34 ± 0.5
118 | FYCSNSYYNVRIDRQNYCQM | 5.501 ± 0.052
119 | SLRFGYNFKFLAMIKFPHIR | -0.644 ± 0.78
120 | GALMMMVEGSESVNKVHFVY | -1.05 ± 0.44
121 | RCTKA | 0.341 ± 0.21
122 | CHRKWRYLMEASHRLSHSSW | inactive
123 | EDTMFHNFQWSKAYLCYYWF | -0.294 ± 1.1
124 | SLPIVEDITGYPLRSHWG | 0.172 ± 0.27
125 | RTWSIFIASVKYVKV | -0.24 ± 0.74

Row | Substance | amyloid nucleation score
126 | RKVLLVNVLGSDEDTHLTRV | -0.973 ± 0.76
127 | ALWTSC | 2.35 ± 0.078
128 | ILCFGFITTNSIRLQSPMVV | 0.753 ± 0.51
129 | IHRPTRFYTFSSSTSEQA | 0.351 ± 0.64
130 | WDIIF | -1.45 ± 0.34
131 | GNMVFAPCDL | 1.07 ± 0.2
132 | SRSAWLRELDPPA | 0.839 ± 0.43
133 | AALELSRNKFSVRIICVLLW | -0.238 ± 1.1
134 | IFDRNSYFKEHFVMIGLEGR | 0.228 ± 1
135 | GQFGVCITSPARQLSYD | inactive
136 | WNVFKLSGSSYV | -0.483 ± 0.31
137 | ECGVLFV | 0.827 ± 0.6
138 | HCGYRVIELDLSRLASRSLR | 0.195 ± 0.32
139 | LVWPTYVGDQAGSCVPGVFP | 4.51 ± 0.068
140 | WLPNQVKGHLSFRMCSDIRH | 4.334 ± 0.035
141 | SDSTSVLPGRTYWVHFSAQG | 0.086 ± 0.61
142 | VIGAGCIEKQRTVEAGGCRG | 1.23 ± 0.35
143 | TMIKSQMLYFSGLATRLRLG | 0.098 ± 0.26
144 | LYSLWQKRGRRGSYVSPAGS | 2.88 ± 0.13
145 | RSARDYSVLKSRILSSAGLG | 1.32 ± 0.39
146 | PRTISSSRLMWRYVSYLVIV | inactive
147 | QINSHNWYDG | 0.369 ± 0.8
148 | IVSTV | 0.655 ± 0.49
149 | VGLVMHGIVLCLMLSHMSWR | 0.354 ± 0.41
150 | VNRVTRPNECYACQYMFGRW | 1.19 ± 0.18

Row | Substance | amyloid nucleation score
151 | HPHIFDLVVIYCQNGHV | 6.92 ± 0.075
152 | LYVVVRLISCYYGAFPSWNR | -0.316 ± 0.26
153 | SALCAYIQSLFNDCRTLDKW | -0.5 ± 0.44
154 | PGILRTFVETEYCITI | inactive
155 | LPTFSPQ | 3.77 ± 0.13
156 | LMYVCSLNNPLFMYANLL | 5.54 ± 0.084
157 | CFSLRVENSVRRTTTHPCLD | 3.87 ± 0.075
158 | LNHIYYLAIQTTACILTMGE | -1.07 ± 0.63
159 | ISHTLHATITVLLVSNFCLS | 0.475 ± 0.43
160 | VSVDGKLRFRPT | 0.313 ± 0.45
161 | MSICANLVLWWLDL | -0.607 ± 0.63
162 | TGSWNGCVKWASRLKRAGGR | 0.643 ± 0.64
163 | LLLIADYMSLVCCRAGVRDV | 0.215 ± 0.42
164 | RPKSKADYGWC | -0.119 ± 0.45
165 | ITAFTNRVKFWS | 0.132 ± 0.36
166 | ITVFAGFLRCCYLCFLDNHS | inactive
167 | QIQVLGWSRKSLMDNKL | inactive
168 | FASALNYTLYWSSSLTLFAL | 2.54 ± 0.067
169 | CLYRTLWSCLWSGMMIFCTD | -1.77 ± 1
170 | FSKLLDGLTNRSESPASSVD | 1.69 ± 0.14
